We go through 24 molecules from patent US20080199426A1 (BETH ISRAEL DEACONESS MEDICAL CENTER, published 2008).

B1: SH2 domain of TNS (other, UniProt Q9HBL0 1567-1676, looked up)
chain: WYKPEISREQAIALLKDQEPGAFIIRDSHSFRGAYGLAMKVSSPPPTIMQQNKKGDMTHELVRHFLIETGPRGVKLKGCPNEPNFGSLSALVYQHSIIPLALPCKLVIPN
notes: domain: SH2 domain
B2: SH2 domain of Brdg1 (other, UniProt Q9ULZ2 177-280, looked up)
chain: ACFYTVSRKEATEMLQKNPSLGNMILRPGSDSRNYSITIRQEIDIPRIKHYKVMSVGQNYTIELEKPVTLPNLFSVIDYFVKETRGNLRPFICSTDENTGQEPS
notes: domain: SH2 domain
B3: SH2 domain of Lck (other, UniProt P06239 127-224, looked up)
chain: WFFKNLSRKDAERQLLAPGNTHGSFLIRESESTAGSFSLSVRDFDQNQGEVVKHYKIRNLDNGGFYISPRITFPGLHELVRHYTNASDGLCTRLSRPC
notes: domain: SH2 domain
B4: SH2 domain of Abl1 (other, UniProt P00519 127-217, looked up)
chain: WYHGPVSRNAAEYLLSSGINGSFLVRESESSPGQRSISLRYEGRVYHYRINTASDGKLYVSSESRFNTLAELVHHHSTVADGLITTLHYPA
notes: domain: SH2 domain
B5: SH2 domain of Nck1 (other, UniProt P16333 282-376, looked up)
chain: WYYGKVTRHQAEMALNERGHEGDFLIRDSESSPNDFSVSLKAQGKNKHFKVQLKETVYCIGQRKFSTMEELVEHYKKAPIFTSEQGEKLYLVKHL
notes: domain: SH2 domain
B6: SH2 domain of Csk (other, UniProt P41240 82-171, looked up)
chain: WFHGKITREQAERLLYPPETGLFLVRESTNYPGDYTLCVSCDGKVEHYRIMYHASKLSIDEEVYFENLMQLVEHYTSDADGLCTRLIKPK
notes: domain: SH2 domain
B7: SH2 domain of Hck (other, UniProt P08631 144-241, looked up)
chain: WFFKGISRKDAERQLLAPGNMLGSFMIRDSETTKGSYSLSVRDYDPRQGDTVKHYKIRTLDNGGFYISPRSTFSTLQELVDHYKKGNDGLCQKLSVPC
notes: domain: SH2 domain
B8: SH2 domain of Yes (other, UniProt P07947 158-255, looked up)
chain: WYFGKMGRKDAERLLLNPGNQRGIFLVRESETTKGAYSLSIRDWDEIRGDNVKHYKIRKLDNGGYYITTRAQFDTLQKLVKHYTEHADGLCHKLTTVC
notes: domain: SH2 domain
B9: SH2 domain of Fyn (other, UniProt P06241 149-246, looked up)
chain: WYFGKLGRKDAERQLLSFGNPRGTFLIRESETTKGAYSLSIRDWDDMKGDHVKHYKIRKLDNGGYYITTRAQFETLQQLVQHYSERAAGLCCRLVVPC
notes: domain: SH2 domain
B10: SH2 domain of Fes (other, UniProt P07332 460-549, looked up)
chain: WYHGAIPRAEVAELLVHSGDFLVRESQGKQEYVLSVLWDGLPRHFIIQSLDNLYRLEGEGFPSIPLLIDHLLSTQQPLTKKSGVVLHRAV
notes: domain: SH2 domain
B11: SH2 domain of Nck2 (other, UniProt O43639 285-380, looked up)
chain: WYYGNVTRHQAECALNERGVEGDFLIRDSESSPSDFSVSLKASGKNKHFKVQLVDNVYCIGQRRFHTMDELVEHYKKAPIFTSEHGEKLYLVRALQ
notes: domain: SH2 domain
B12: SH2 domain of SHC1 (other, UniProt P29353 488-579, looked up)
chain: WFHGKLSRREAEALLQLNGDFLVRESTTTPGQYVLTGLQSGQPKHLLLVDPEGVVRTKDHRFESVSHLISYHMDNHLPIISAGSELCLQQPV
notes: domain: SH2 domain
B13: SH2 domain of SHC2 (other, UniProt P98077 487-578, looked up)
chain: WYHGRMSRRAAERMLRADGDFLVRDSVTNPGQYVLTGMHAGQPKHLLLVDPEGVVRTKDVLFESISHLIDHHLQNGQPIVAAESELHLRGVV
notes: domain: SH2 domain
B14: SH2 domain of Grap (other, UniProt Q13588 60-154, looked up)
chain: WYSGRISRQLAEEILMKRNHLGAFLIRESESSPGEFSVSVNYGDQVQHFKVLREASGKYFLWEEKFNSLNELVDFYRTTTIAKKRQIFLRDEEPL
notes: domain: SH2 domain
B15: SH2 domain of Btk (other, UniProt Q06187 281-377, looked up)
chain: WYSKHMTRSQAEQLLKQEGKEGGFIVRDSSKAGKYTVSVFAKSTGDPQGVIRHYVVCSTPQSQYYLAEKHLFSTIPELINYHQHNSAGLISRLKYPV
notes: domain: SH2 domain
B16: SH2 domain of Matk (other, UniProt P42679 122-211, looked up)
chain: WFHGKISGQEAVQQLQPPEDGLFLVRESARHPGDYVLCVSFGRDVIHYRVLHRDGHLTIDEAVFFCNLMDMVEHYSKDKGAICTKLVRPK
notes: domain: SH2 domain
B17: SH2 domain of SHC3 (other, UniProt Q92529 499-590, looked up)
chain: WYQGEMSRKEAEGLLEKDGDFLVRKSTTNPGSFVLTGMHNGQAKHLLLVDPEGTIRTKDRVFDSISHLINHHLESSLPIVSAGSELCLQQPV
notes: domain: SH2 domain
B18: SH2 domain of Fgr (other, UniProt P09769 144-241, looked up)
chain: WYFGKIGRKDAERQLLSPGNPQGAFLIRESETTKGAYSLSIRDWDQTRGDHVKHYKIRKLDMGGYYITTRVQFNSVQELVQHYMEVNDGLCNLLIAPC
notes: domain: SH2 domain
B19: SH2 domain of Eat2 (other, UniProt O14796 5-101, looked up)
chain: YYHGRLTKQDCETLLLKEGVDGNFLLRDSESIPGVLCLCVSFKNIVYTYRIFREKHGYYRIQTAEGSPKQVFPSLKELISKFEKPNQGMVVHLLKPI
notes: domain: SH2 domain
B20: SH2 domain of Lyn (other, UniProt P07948 129-226, looked up)
chain: WFFKDITRKDAERQLLAPGNSAGAFLIRESETLKGSFSLSVRDFDPVHGDVIKHYKIRSLDNGGYYISPRITFPCISDMIKHYQKQADGLCRRLEKAC
notes: domain: SH2 domain
B21: SH2 domain of RaLP (other, UniProt Q6S5L8 526-617, looked up)
chain: CYHGKLSRKAAESLLVKDGDFLVRESATSPGQYVLSGLQGGQAKHLLLVDPEGKVRTKDHVFDNVGHLIRYHMDNSLPIISSGSEVSLKQPV
notes: domain: SH2 domain
B22: SH2 domain of Stap2 (other, UniProt Q9UGK3 133-248, looked up)
chain: YMMSEVLAKEEARRALETPSCFLKVSRLEAQLLLERYPECGNLLLRPSGDGADGVSVTTRQMHNGTHVVRHYKVKREGPKYVIDVEQPFSCTSLDAVVNYFVSHTKKALVPFLLDE
notes: domain: SH2 domain
B23: SH2 domain of Grb14 (other, UniProt Q14449 439-535, looked up)
chain: WFHHKISRDEAQRLIIQQGLVDGVFLVRDSQSNPKTFVLSMSHGQKIKHFQIIPVEDDGEMFHTLDDGHTRFTDLIQLVEFYQLNKGVLPCKLKHYC
notes: domain: SH2 domain
B24: SH2 domain of Crkl (other, UniProt P46109 14-102, looked up)
chain: WYMGPVSRQEAQTRLQGQRHGMFLVRDSSTCPGDYVLSVSENSRVSHYIINSLPNRRFKIGDQEFDHLPALLEFYKIHYLDTTTLIEPA
notes: domain: SH2 domain; also called Crk1

The target of the first experiment is T1, thrombin-activated EphA2 (endogenous, from lysate of HUVECs stimulated with 1 U/ml thrombin for 5 mins) (human, UniProt P29317 24-976, tyrosine phosphorylated after thrombin stimulation (sites not given)).
T1 construct: Endogenous EphA2 in a HUVEC lysate, detected on the array with a biotinylated anti-human EphA2 antibody; No signal peptide limits are stated
T1 sequence (P29317 24-976 limits assumed): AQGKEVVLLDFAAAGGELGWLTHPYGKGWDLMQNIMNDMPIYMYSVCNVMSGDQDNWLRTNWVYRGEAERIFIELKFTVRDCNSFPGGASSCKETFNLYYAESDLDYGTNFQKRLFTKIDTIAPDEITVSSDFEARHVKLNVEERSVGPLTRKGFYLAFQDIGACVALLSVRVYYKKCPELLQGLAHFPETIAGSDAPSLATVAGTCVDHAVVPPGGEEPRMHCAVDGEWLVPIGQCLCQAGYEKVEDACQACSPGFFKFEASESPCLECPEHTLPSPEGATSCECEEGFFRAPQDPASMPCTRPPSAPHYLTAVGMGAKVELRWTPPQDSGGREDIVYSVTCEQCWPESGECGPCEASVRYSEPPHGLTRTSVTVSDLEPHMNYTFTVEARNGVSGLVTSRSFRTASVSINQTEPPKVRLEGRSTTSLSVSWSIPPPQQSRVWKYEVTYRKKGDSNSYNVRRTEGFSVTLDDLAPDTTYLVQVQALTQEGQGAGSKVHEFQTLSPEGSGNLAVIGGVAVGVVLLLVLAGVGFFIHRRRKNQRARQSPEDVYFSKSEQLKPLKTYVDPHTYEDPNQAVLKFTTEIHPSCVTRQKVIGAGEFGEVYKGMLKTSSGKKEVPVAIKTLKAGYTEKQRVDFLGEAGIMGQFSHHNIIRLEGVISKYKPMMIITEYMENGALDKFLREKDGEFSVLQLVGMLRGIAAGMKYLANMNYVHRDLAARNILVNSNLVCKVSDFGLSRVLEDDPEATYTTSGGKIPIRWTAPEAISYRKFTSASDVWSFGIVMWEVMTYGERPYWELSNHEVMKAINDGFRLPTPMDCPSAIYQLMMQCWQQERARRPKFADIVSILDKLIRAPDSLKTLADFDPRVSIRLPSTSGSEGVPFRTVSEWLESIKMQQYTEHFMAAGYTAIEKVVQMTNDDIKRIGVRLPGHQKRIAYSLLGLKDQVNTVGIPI
The experiment in a line: SH2 domain array with thrombin-stimulated HUVEC lysate, anti-EphA2 detection. As to the method: (§1) Methods: We used a phosphotyrosine profiling array to identify signaling pathways linked to EphA2 activation by thrombin. HUVECs were prepared and stimulated with 1 U/ml thrombin for 5 mins. TranSignal Phosphotyrosine Profiling Array (Panomics) was used according to the manufacturer's protocol, except that a biotinylated anti-human EphA2 (R & D) was used as the detection antibody.
(§2) Results: Confluent HUVECs were stimulated with thrombin for 5 mins to induce EphA2 phosphorylation. This stimulated lysate and an unstimulated lysate were used in the antibody array experiment. The concept of this array is similar to a far-western blot. On this array, the SH2 domains of 38 signaling molecules were spotted in duplicate. Upon incubation with a lysate, each of these SH2 domains will bind to its specific, tyrosine phosphorylated protein targets. When an anti-human EphA2 antibody was used for detection, any SH2 domains that are bound to EphA2 will appear as two dots in a specific location of the membrane. Therefore, pathways activated post EphA2 phosphorylation can be identified.
On to B1, for which the binding result is “no binding”.
Take B2: the binding result is “no binding”.
Take B3: the binding result is “no binding”.
On to B4, for which the binding result was “no binding”.
With B5, the binding result is recorded as “no binding”.
As for B6, the binding result is “no binding”.
Regarding B7, the binding result is given as “no binding”.
On to B8, for which the binding result is on record as “no binding”.
B9: the binding result is recorded as “no binding”.
B10: the binding result is given as “no binding”.
For the molecule B11, the binding result is “no binding”.
Still for that read-out and setting: then B12, with “no binding”; and B13, with “no binding”.
As for B14, the binding result is listed as “no binding”.
With B15, the binding result is “no binding”.
For the molecule B16, the binding result is “no binding”.
Turning to B17, the binding result is reported as “no binding”.
On to B18, for which the binding result is listed as “no binding”.
As to B19, the binding result is listed as “no binding”.
B20: the binding result is given as “no binding”.
B21: the binding result was “no binding”.
Take B22: the binding result is on record as “no binding”.
With B23, the binding result was “no binding”.

Another experiment has as its target T1, thrombin-activated EphA2 (endogenous, …). Put plainly: SH2 domain array with thrombin-stimulated HUVEC lysate, anti-human EphA2 detection. As to the method: as §1, §2
Consider B24, for which the binding result is listed as “binds”.
